Measured values: publication PMC12560177 (Journal of the American Chemical Society, 2025)
Square brackets hold non-standard residues; d marks the D form. Ends that are not written are not given here. Aib = CC(C)(N)C(=O)O

What was measured:
[1] = target: T1, GLP-1R (Homo sapiens, UniProt P43220); assay: β-arrestin-2 recruitment to GLP-1R measured by BRET; type: cell-based; details: for Emax: HEK-293T, read-out: β-arrestin-2 Max response (% GLP-1)
[2] = overweight and obese individuals, 24-week Phase 2 clinical trial; cited from earlier work
[3] = target: glucagon-like peptide-1 receptor (UniProt P43220)
[4] = target: GLP-1R-Rluc8 (UniProt P43220)
[5] = target: T1, GLP-1R; details: vs GLP-1; stated as an observation, no reference given; cited from earlier work
[6] = target: glucagon receptor (UniProt P47871)
[7] = target: glucose-dependent insulinotropic polypeptide receptor (UniProt P48546)
Sequence of glucose-dependent insulinotropic polypeptide receptor (P48546 22-466): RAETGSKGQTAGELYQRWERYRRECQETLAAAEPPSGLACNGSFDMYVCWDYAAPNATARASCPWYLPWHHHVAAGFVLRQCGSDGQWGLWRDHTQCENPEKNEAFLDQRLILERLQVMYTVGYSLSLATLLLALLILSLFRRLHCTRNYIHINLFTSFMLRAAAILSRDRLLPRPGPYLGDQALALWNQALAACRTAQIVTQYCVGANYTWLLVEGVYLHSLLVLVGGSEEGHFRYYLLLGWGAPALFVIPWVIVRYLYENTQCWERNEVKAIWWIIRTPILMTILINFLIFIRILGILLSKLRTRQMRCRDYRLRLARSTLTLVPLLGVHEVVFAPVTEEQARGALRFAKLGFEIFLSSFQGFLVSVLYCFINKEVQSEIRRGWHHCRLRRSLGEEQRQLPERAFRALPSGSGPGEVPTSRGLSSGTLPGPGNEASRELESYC

T1 sequence (P43220 24-463, species assumed): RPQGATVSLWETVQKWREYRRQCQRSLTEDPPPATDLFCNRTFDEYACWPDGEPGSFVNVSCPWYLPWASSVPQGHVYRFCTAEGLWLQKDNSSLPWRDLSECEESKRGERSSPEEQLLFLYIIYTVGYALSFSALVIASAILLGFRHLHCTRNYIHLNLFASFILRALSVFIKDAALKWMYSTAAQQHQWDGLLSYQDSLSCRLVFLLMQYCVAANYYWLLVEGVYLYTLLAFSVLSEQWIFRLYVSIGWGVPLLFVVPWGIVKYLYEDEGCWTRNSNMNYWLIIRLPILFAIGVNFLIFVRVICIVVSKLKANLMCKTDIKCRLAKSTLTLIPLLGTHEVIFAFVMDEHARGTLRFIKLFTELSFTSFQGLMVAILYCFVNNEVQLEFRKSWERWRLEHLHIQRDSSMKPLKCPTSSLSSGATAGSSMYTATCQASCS
Sequence of GLP-1R-Rluc8 (P43220 24-463): as the sequence (P43220 24-463, species assumed) above
Sequence of glucagon-like peptide-1 receptor (P43220 24-463): as the sequence (P43220 24-463, species assumed) above

Compound: CC[C@H](C)[C@H](NC(=O)[C@H](Cc1ccccc1)NC(=O)[C@H](C)NC(=O)C(C)(C)NC(=O)[C@H](CCC(N)=O)NC(=O)[C@H](C)NC(=O)[C@H](CCCCNC(=O)COCCOCCNC(=O)CC[C@H](NC(=O)CCCCCCCCCCCCCCCCCCC(=O)O)C(=O)O)NC(=O)[C@H](CCCCN)NC(=O)[C@H](CC(=O)O)NC(=O)[C@H](CC(C)C)NC(=O)[C@](C)(CC(C)C)NC(=O)[C@@H](NC(=O)[C@H](CO)NC(=O)[C@H](Cc1ccc(O)cc1)NC(=O)[C@H](CC(=O)O)NC(=O)[C@H](CO)NC(=O)[C@@H](NC(=O)[C@H](Cc1ccccc1)NC(=O)[C@@H](NC(=O)CNC(=O)[C@H](CCC(N)=O)NC(=O)C(C)(C)NC(=O)[C@@H](N)Cc1ccc(O)cc1)[C@@H](C)O)[C@@H](C)O)[C@@H](C)CC)C(=O)N[C@@H](CCC(=O)O)C(=O)N[C@@H](Cc1ccc(O)cc1)C(=O)N[C@@H](CC(C)C)C(=O)N[C@@H](CC(C)C)C(=O)N[C@@H](CCC(=O)O)C(=O)NCC(=O)NCC(=O)N1CCC[C@H]1C(=O)N[C@@H](CO)C(=O)N[C@@H](CO)C(=O)NCC(=O)N[C@@H](C)C(=O)N1CCC[C@H]1C(=O)N1CCC[C@H]1C(=O)N1CCC[C@H]1C(=O)N[C@@H](CO)C(N)=O [Retatrutide]
- Emax [1]: 58 ± 5%
- maximal weight loss [2]: 24%

Compound: GEP44 (peptide)
- EC50, cAMP-dependent CRE6x-luciferase reporter gene assay, HEK293 cells [3]: 0.64 pM
- pEC50 of β-arrestin-2 recruitment to GLP-1R, BRET, HEK293T cells [4]: 7.67

Compound: GLP-1(9–36 amide)
- loss in receptor potency of the DPP4-truncated form [5]: > 1,000 fold

Compound: H[Aib]QGTFTSDYSKYLDERAAQDFVQWLLDGGPSLRHYLNLVTRQRY-NH2 (C-terminus assumed) [TC0]
- EC50 [1]: 21400 pM
- Emax [1]: 90 ± 5%

Compound: Retatrutide (peptide)
- EC50, cAMP-dependent CRE6x-luciferase reporter gene assay, HEK293 cells [6]: 8.2 pM
- EC50, cAMP-dependent CRE6x-luciferase reporter gene assay, HEK293 cells [3]: 11 pM
- EC50, cAMP-dependent CRE6x-luciferase reporter gene assay, HEK293 cells [7]: 2.2 pM
- pEC50 of β-arrestin-2 recruitment to GLP-1R, BRET, HEK293T cells [4]: 7.62
